Laboratory results reported in patent US20210101998A1.
Where a chain is given by its changes, count along the chain named. Read-outs that look alike come from different tables or passages of the source. One block for each binder: values may come before it.

What was measured:
[1] = target: endogenous TFPI in human plasma (human), P10646; test: cell-based or functional assay
[2] = target: endogenous TFPI in human plasma (human), P10646; test: cell-based or functional assay; remark: listed apart in the source

B1: 4D8.b1 (antibody, mouse IgG1, kappa)
light: DIVMTQSHKFMSTSVGDRVSITCKASQDVHTAVAWYQQKPGQSPRLLIYWASTRHTGVPDRFTGCGSGTDYTLTISSVQAEDLALYYCQQHYTTPYTFGGGTKLEMKADAAPTVSIFPPSSEQLTSGGASVVCFLNNFYPKDINVKWKIDGSERQNGVLNSWTDQDSKDSTYSMSSTLTLTKDEYERHNSYTCEATHKTSTSPIVKSFNRNEC
heavy: EVLLQQSGPELVKPGASVKIPCKASGYTFTDYNLDWVKQSHGKSLEWIGDINPINGATLYNQKFKGKATLTVDQSSSTAYMELRSLTSEDTAVYYCSIYYGDYDAMDYWGQGASVTVSSAKTTPPSVYPLAPGSAAQTNSMVTLGCLVKGYFPEPVTVTWNSGSLSSGVHTFPAVLQSDLYTLSSSVTVPSSTWPSETVTCNVAHPASSTKVDKKIVPRDCGCKPCICTVPEVSSVFIFPPKPKDVLTITLTPKVTCVVVDISKDDPEVQFSWFVDDVEVHTAQTQPREEQFNSTFRSVSELPIMHQDWLNGKEFKCRVNSAAFPAPIEKTISKTKGRPKAPQVYTIPPPKEQMAKDKVSLTCMITDFFPEDITVEWQWNGQPAENYKNTQPIMDTDGSYFVYSKLNVQKSNWEAGNTFTCSVLHEGLHNHHTEKSLSHSPGK
TGA Velocity Index at 20 nM [1]: 26.3 | TGA Velocity Index at 20 nM [2]: 13.5

B2: 6B7.c5 (antibody, mouse IgG1, kappa)
light: B1 light with H30I, R45K, D60V, C65S, S76I, T93S, M106I
heavy: EVLLQQSGPELVKPGSSVKIPCKASGYTFTDYTMDWVKQSHGKSLEWIGDINPSNGGSIYNRKFKGKATLTVDKSSSTAYMELRSLTSEDTAVYYCARMHYNYDGFPYWGQGTLVTVSAAKTTPPSVYPLAPGSAAQTNSMVTLGCLVKGYFPEPVTVTWNSGSLSSGVHTFPAVLQSDLYTLSSSVTVPSSTWPSETVTCNVAHPASSTKVDKKIVPRDCGCKPCICTVPEVSSVFIFPPKPKDVLTITLTPKVTCVVVDISKDDPEVQFSWFVDDVEVHTAQTQPREEQFNSTFRSVSELPIMHQDWLNGKEFKCRVNSAAFPAPIEKTISKTKGRPKAPQVYTIPPPKEQMAKDKVSLTCMITDFFPEDITVEWQWNGQPAENYKNTQPIMDTDGSYFVYSKLNVQKSNWEAGNTFTCSVLHEGLHNHHTEKSLSHSPGK
TGA Velocity Index at 20 nM [1]: 23.5

B4: 2A8-200 (antibody, human IgG1, lambda)
light: DIELTQPPSVSVAPGQTARISCSGDNLRNYYAHWYQQKPGQAPVVVIFYDVNRPSGIPERFSGSNSGNTATLTISGTQAEDEADYYCQSWWDGVPVFGGGTKLTVLGQPKAAPSVTLFPPSSEELQANKATLVCLISDFYPGAVTVAWKADSSPVKAGVETTTPSKQSNNKYAASSYLSLTPEQWKSHRSYSCQVTHEGSTVEKTVAPTECS
heavy: QVQLVESGGGLVQPGGSLRLSCAASGFTFRSYGMDWVRQAPGKGLEWVSSIRGSRSSTYYADSVKGRFTISRDNSKNTLYLQMNSLRAEDTAVYYCARLYRYWFDYWGQGTLVTVSSASTKGPSVFPLAPSSKSTSGGTAALGCLVKDYFPEPVTVSWNSGALTSGVHTFPAVLQSSGLYSLSSVVTVPSSSLGTQTYICNVNHKPSNTKVDKKVEPKSCDKTHTCPPCPAPEAAGAPSVFLFPPKPKDTLMISRTPEVTCVVVDVSHEDPEVKFNWYVDGVEVHNAKTKPREEQYNSTYRVVSVLTVLHQDWLNGKEYKCKVSNKALPAPIEKTISKAKGQPREPQVYTLPPSREEMTKNQVSLTCLVKGFYPSDIAVEWESNGQPENNYKTTPPVLDSDGSFFLYSKLTVDKSRWQQGNVFSCSVMHEALHNHYTQKSLSLSPG
Dilute PT EC50 [2]: 1 nM

Continued, values first:

Dilute PT EC50 [2]: 0.47 nM | TGA Velocity EC50 [2]: 3.9 nM | TGA Velocity Index at 20 nM [2]: 15.7 | dilute prothrombin time EC50 [2]: 0.47 nM
B3: hz4D8 (antibody, human IgG1, kappa)
light: DIQMTQSPSSLSASVGDRVTITCKASQDVHTAVAWYQQKPGKAPKLLIYWASTRHTGVPSRFSGSGSGTDYTLTISSLQPEDFATYYCQQHYTTPYTFGQGTKLEIKRTVAAPSVFIFPPSDEQLKSGTASVVCLLNNFYPREAKVQWKVDNALQSGNSQESVTEQDSKDSTYSLSSTLTLSKADYEKHKVYACEVTHQGLSSPVTKSFNRGEC
heavy: EVQLVESGGGLVQPGGSLRLSCAASGYTFTDYNLDWVRQAPGKGLEWVADINPINGATLYNQKFKGRFTISRDQAKNSLYLQMNSLRAEDTAVYYCARYYGDYDAMDYWGQGTLVTVSSASTKGPSVFPLAPSSKSTSGGTAALGCLVKDYFPEPVTVSWNSGALTSGVHTFPAVLQSSGLYSLSSVVTVPSSSLGTQTYICNVNHKPSNTKVDKKVEPKSCDKTHTCPPCPAPEAAGAPSVFLFPPKPKDTLMISRTPEVTCVVVDVSHEDPEVKFNWYVDGVEVHNAKTKPREEQYNSTYRVVSVLTVLHQDWLNGKEYKCKVSNKALPAPIEKTISKAKGQPREPQVYTLPPSREEMTKNQVSLTCLVKGFYPSDIAVEWESNGQPENNYKTTPPVLDSDGSFFLYSKLTVDKSRWQQGNVFSCSVMHEALHNHYTQKSLSLSPG

TGA Velocity Index at 20 nM [1]: 23.3
B5: 7A4.D9 (antibody, mouse IgG1, kappa)
light: DIVLTQSPASLAVSLGQRATISCRASKSVSTSGYTYMHWYQQKPGQPPKLLIYLASNLESGVPARFSGSGSGTDFTLNIHPVEEEDAAAYYCQHIRELPFTFGSGTKLEIKADAAPTVSIFPPSSEQLTSGGASVVCFLNNFYPKDINVKWKIDGSERQNGVLNSWTDQDSKDSTYSMSSTLTLTKDEYERHNSYTCEATHKTSTSPIVKSFNRNEC
heavy: EVQLQQSGPELVKPGASVKMSCKASGYTFTSYVMHWVKQKPGQGLEWIGYLNPYNDGTKYNEKFKGKASLISDKSSSTVYMELSSLTSEDSAVYYCATTLLYAMDYWGQGSSVTVSSAKTTPPSVYPLAPGSAAQTNSMVTLGCLVKGYFPEPVTVTWNSGSLSSGVHTFPAVLQSDLYTLSSSVTVPSSTWPSETVTCNVAHPASSTKVDKKIVPRDCGCKPCICTVPEVSSVFIFPPKPKDVLTITLTPKVTCVVVDISKDDPEVQFSWFVDDVEVHTAQTQPREEQFNSTFRSVSELPIMHQDWLNGKEFKCRVNSAAFPAPIEKTISKTKGRPKAPQVYTIPPPKEQMAKDKVSLTCMITDFFPEDITVEWQWNGQPAENYKNTQPIMDTDGSYFVYSKLNVQKSNWEAGNTFTCSVLHEGLHNHHTEKSLSHSPGK

TGA Velocity Index at 20 nM [2]: 23.2 | dilute prothrombin time EC50 [2]: 0.57 nM
B6: TFPI-24 (antibody, human IgG1, lambda)
light: not shown
heavy: EVQLVESGGGSVQPGRSLRLSCAVSGLTIDNYAMQWVRQRPGKGLEWVSGISGNSRSIGYADSVKGRLTISRDNAKNSLYLQIDSLRADDTALYYCAIFLHESDYWGQGTLVTVSSASTKGPSVFPLAPSSKSTSGGTAALGCLVKDYFPEPVTVSWNSGALTSGVHTFPAVLQSSGLYSLSSVVTVPSSSLGTQTYICNVNHKPSNTKVDKKVEPKSCDKTHTCPPCPAPEAAGAPSVFLFPPKPKDTLMISRTPEVTCVVVDVSHEDPEVKFNWYVDGVEVHNAKTKPREEQYNSTYRVVSVLTVLHQDWLNGKEYKCKVSNKALPAPIEKTISKAKGQPREPQVYTLPPSREEMTKNQVSLTCLVKGFYPSDIAVEWESNGQPENNYKTTPPVLDSDGSFFLYSKLTVDKSRWQQGNVFSCSVMHEALHNHYTQKSLSLSPG

Dilute PT EC50 [2]: 1.16 nM | TGA Velocity EC50 [2]: 7.72 nM | dilute prothrombin time EC50 [2]: 1.16 nM
B7: TFPI-118 (antibody, human IgG1, lambda)
light: not shown
heavy: B6 heavy with S11L, R40A, L68F, I83M, D84N, D89E
